From the Immune Epitope Database (IEDB)

molecular target: HLA-A*02:01; assay: IEDB peptide-MHC binding, purified MHC/competitive/fluorescence; ≥ and ≤ were set here for values at or beyond the usual limits of such assays; settings: source organism: Homo sapiens

IC50 [µM]	Sequence
5.02	AAAFVNQHL
≥ 100	AAAFVNQHLC
≥ 100	AAFVNQHLCG
≥ 100	AEDLQVGQV
≥ 100	AEDLQVGQVE
≥ 100	AFVNQHLCG
≥ 100	AFVNQHLCGS
≥ 100	AGSLQPLAL
≥ 100	AGSLQPLALE
≥ 100	ALLALWGPD
0.88	ALWGPDPAA
≥ 100	CCTSICSLY
≥ 100	CCTSICSLYQ
≥ 100	CTSICSLYQ
≥ 97.7	CTSICSLYQL
≥ 100	DLQVGQVEL
≥ 100	DLQVGQVELG
≥ 100	DPAAAFVNQ
≥ 100	DPAAAFVNQH
≥ 100	EAEDLQVGQ
≥ 100	EDLQVGQVE
≥ 100	EDLQVGQVEL
≥ 100	ELGGGPGAG
≥ 100	ELGGGPGAGS

IC50 [µM]	Sequence
≥ 100	EQCCTSICS
≥ 100	EQCCTSICSL
≥ 100	ERGFFYTPK
≥ 100	GAGSLQPLAL
≥ 100	GGGPGAGSL
≥ 100	GGGPGAGSLQ
≥ 100	GGPGAGSLQ
≥ 100	GGPGAGSLQP
≥ 100	GIVEQCCTS
≥ 100	GPDPAAAFV
≥ 100	GPDPAAAFVN
≥ 100	GPGAGSLQP
≥ 100	GQVELGGGP
≥ 100	GQVELGGGPG
≥ 100	GSLQPLALE
≥ 100	GSLQPLALEG
≥ 100	ICSLYQLEN
≥ 100	ICSLYQLENY
≥ 100	IVEQCCTSI
≥ 100	LALEGSLQK
≥ 100	LALLALWGP
≥ 100	LALWGPDPA
≥ 100	LGGGPGAGS
≥ 100	LGGGPGAGSL

IC50 [µM]	Sequence
≥ 100	LLALLALWG
29.6	LLALLALWGP
1.96	LLALWGPDPA
1.37	LLPLLALLA
5.84	LLPLLALLAL
11.8	LPLLALLAL
≥ 100	LPLLALLALW
≥ 100	LQPLALEGS
≥ 100	LQPLALEGSL
≥ 100	LQVGQVELG
≥ 100	LQVGQVELGG
≥ 100	LWGPDPAAA
≥ 100	LWGPDPAAAF
≥ 100	LYQLENYCN
≥ 100	PAAAFVNQH
≥ 100	PAAAFVNQHL
≥ 100	PDPAAAFVN
≥ 100	PDPAAAFVNQ
≥ 100	PGAGSLQPL
≥ 100	PGAGSLQPLA
≥ 100	PLALEGSLQ
≥ 100	PLALEGSLQK
≥ 100	PLLALLALW
43.5	PLLALLALWG

IC50 [µM]	Sequence
≥ 100	QCCTSICSLY
≥ 100	QPLALEGSL
≥ 100	QPLALEGSLQ
≥ 100	QVELGGGPG
≥ 100	QVELGGGPGA
≥ 100	QVGQVELGG
≥ 100	QVGQVELGGG
≥ 100	SICSLYQLE
≥ 100	SICSLYQLEN
≥ 88	SLQPLALEGS
≥ 100	SLYQLENYCN
≥ 100	TSICSLYQL
≥ 100	TSICSLYQLE
≥ 100	VELGGGPGA
≥ 100	VELGGGPGAG
≥ 100	VEQCCTSIC
≥ 100	VEQCCTSICS
≥ 100	VGQVELGGG
≥ 100	VGQVELGGGP
≥ 100	WGPDPAAAF
4.46	WGPDPAAAFV
